# Data reported in patent publication US20200079833A1 (AstraZeneca / MedImmune, published 2020).
# Starred links: 1 amine or outer side, 2 acyl side, 3 side chain; linkers in the order of their positions; H or OH if unused. Non-standard residues stand in square brackets, D forms with d. Groups on a side chain read outwards from the residue. Primed or numbered codes have the meaning given here. No end group written: not given here. *: point of attachment. γGlu = O=C(O)[C@H](CCC(=O)[*:2])N[*:1]; Stearoyl = CCCCCCCCCCCCCCCCCC(=O)*; Palmitoyl = CCCCCCCCCCCCCCCC(=O)*; αMeF = C[C@](N)(Cc1ccccc1)C(=O)O; αMeK = C[C@](N)(CCCCN)C(=O)O; αMeS = C[C@](N)(CO)C(=O)O; PEG2′ = not defined here; Aib = CC(C)(N)C(=O)O
# Molecular target: GLP-1 receptor (GLP-1R) (human, UniProt P43220 24-463)
# Test: cell-based or functional assay
Binder,cAMP Mean pM GLP-1R,cAMP Primary assay EC50 GLP-1R n1,cAMP Primary assay EC50 GLP-1R n2
H[Aib]EGS[αMeF]TSDV[αMeS]S[αMeF]LEGEAAK([PEG2′-PEG2′-γGlu-Palmitoyl])E[αMeF]IA[αMeF]VV[αMeK]GG-NH2 [SEQ ID NO 109],34 pM,0.034 nM,0.0346 nM
H[Aib]K([PEG2′-PEG2′-γGlu-Stearoyl])GS[αMeF]TSDV[αMeS]S[αMeF]LEGEAA[αMeK]E[αMeF]IA[αMeF]VV[αMeK]GG-NH2 [SEQ ID NO 126],25400 pM,25 nM,25.4 nM
HK([PEG2′-PEG2′-γGlu-Stearoyl])EGS[αMeF]TSDV[αMeS]S[αMeF]LEGEAA[αMeK]E[αMeF]IA[αMeF]VV[αMeK]GG-NH2 [SEQ ID NO 127],25100 pM,25 nM,25.1 nM
H[Aib]EGS[αMeF]TSDV[αMeS]S[αMeF]LEGEAK([PEG2′-PEG2′-γGlu-Stearoyl])[αMeK]E[αMeF]IA[αMeF]VV[αMeK]GG-NH2 [SEQ ID NO 110],62 pM,0.06 nM,0.0639 nM
H[Aib]EGS[αMeF]TSDV[αMeS]K([PEG2′-PEG2′-γGlu-Stearoyl])[αMeF]LEGEAA[αMeK]E[αMeF]IA[αMeF]VV[αMeK]GG-NH2 [SEQ ID NO 117],25 pM,0.026 nM,0.0244 nM
H[Aib]EGS[αMeF]TSDV[αMeS]S[αMeF]LEGK([PEG2′-PEG2′-γGlu-Stearoyl])AA[αMeK]E[αMeF]IA[αMeF]VV[αMeK]GG-NH2 [SEQ ID NO 112],6 pM,0.0061 nM,0.00507 nM
H[Aib]EGS[αMeF]TSK([PEG2′-PEG2′-γGlu-Stearoyl])V[αMeS]S[αMeF]LEGEAA[αMeK]E[αMeF]IA[αMeF]VV[αMeK]GG-NH2 [SEQ ID NO 120],3640 pM,4.1 nM,3.13 nM
H[Aib]EGS[αMeF]TSDV[αMeS]SK([PEG2′-PEG2′-γGlu-Stearoyl])LEGEAA[αMeK]E[αMeF]IA[αMeF]VV[αMeK]GG-NH2 [SEQ ID NO 116],9 pM,0.0093 nM,0.00912 nM
H[Aib]EGK([PEG2′-PEG2′-γGlu-Stearoyl])[αMeF]TSDV[αMeS]S[αMeF]LEGEAA[αMeK]E[αMeF]IA[αMeF]VV[αMeK]GG-NH2 [SEQ ID NO 124],25100 pM,25 nM,25.1 nM
H[Aib]EGS[αMeF]TSDV[αMeS]S[αMeF]LEGEK([PEG2′-PEG2′-γGlu-Stearoyl])A[αMeK]E[αMeF]IA[αMeF]VV[αMeK]GG-NH2 [SEQ ID NO 111],17 pM,0.018 nM,0.0164 nM

# Molecular target: glucagon receptor (GCGR) (human, UniProt P47871 26-477)
# Sequence (P47871 26-477): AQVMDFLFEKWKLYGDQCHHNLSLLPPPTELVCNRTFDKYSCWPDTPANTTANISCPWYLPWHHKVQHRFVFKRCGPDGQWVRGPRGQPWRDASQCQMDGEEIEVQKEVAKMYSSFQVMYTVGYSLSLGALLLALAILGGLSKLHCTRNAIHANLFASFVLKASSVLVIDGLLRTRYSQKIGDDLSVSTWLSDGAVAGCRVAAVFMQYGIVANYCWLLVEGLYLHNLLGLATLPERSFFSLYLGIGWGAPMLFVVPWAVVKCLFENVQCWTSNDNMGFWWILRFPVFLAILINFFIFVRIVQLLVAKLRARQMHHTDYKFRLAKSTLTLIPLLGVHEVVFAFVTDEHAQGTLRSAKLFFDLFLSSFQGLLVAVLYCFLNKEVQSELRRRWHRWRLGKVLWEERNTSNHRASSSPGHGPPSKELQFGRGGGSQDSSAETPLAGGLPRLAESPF
# Test: cell-based or functional assay
Binder,cAMP Primary assay EC50 Gluc-R,cAMP Primary assay EC50 Gluc-R (2nd)
H[Aib]EGS[αMeF]TSDV[αMeS]S[αMeF]LEGEAAK([PEG2′-PEG2′-γGlu-Palmitoyl])E[αMeF]IA[αMeF]VV[αMeK]GG-NH2 [SEQ ID NO 109],26 nM,25.6 nM
H[Aib]K([PEG2′-PEG2′-γGlu-Stearoyl])GS[αMeF]TSDV[αMeS]S[αMeF]LEGEAA[αMeK]E[αMeF]IA[αMeF]VV[αMeK]GG-NH2 [SEQ ID NO 126],25 nM,25.4 nM
HK([PEG2′-PEG2′-γGlu-Stearoyl])EGS[αMeF]TSDV[αMeS]S[αMeF]LEGEAA[αMeK]E[αMeF]IA[αMeF]VV[αMeK]GG-NH2 [SEQ ID NO 127],25 nM,25.1 nM
H[Aib]EGS[αMeF]TSDV[αMeS]S[αMeF]LEGEAK([PEG2′-PEG2′-γGlu-Stearoyl])[αMeK]E[αMeF]IA[αMeF]VV[αMeK]GG-NH2 [SEQ ID NO 110],25 nM,25 nM
H[Aib]EGS[αMeF]TSDV[αMeS]K([PEG2′-PEG2′-γGlu-Stearoyl])[αMeF]LEGEAA[αMeK]E[αMeF]IA[αMeF]VV[αMeK]GG-NH2 [SEQ ID NO 117],25 nM,25.1 nM
H[Aib]EGS[αMeF]TSDV[αMeS]S[αMeF]LEGK([PEG2′-PEG2′-γGlu-Stearoyl])AA[αMeK]E[αMeF]IA[αMeF]VV[αMeK]GG-NH2 [SEQ ID NO 112],25 nM,25.4 nM
H[Aib]EGS[αMeF]TSK([PEG2′-PEG2′-γGlu-Stearoyl])V[αMeS]S[αMeF]LEGEAA[αMeK]E[αMeF]IA[αMeF]VV[αMeK]GG-NH2 [SEQ ID NO 120],25 nM,25.3 nM
H[Aib]EGS[αMeF]TSDV[αMeS]SK([PEG2′-PEG2′-γGlu-Stearoyl])LEGEAA[αMeK]E[αMeF]IA[αMeF]VV[αMeK]GG-NH2 [SEQ ID NO 116],26 nM,25.6 nM
H[Aib]EGK([PEG2′-PEG2′-γGlu-Stearoyl])[αMeF]TSDV[αMeS]S[αMeF]LEGEAA[αMeK]E[αMeF]IA[αMeF]VV[αMeK]GG-NH2 [SEQ ID NO 124],25 nM,25.1 nM
H[Aib]EGS[αMeF]TSDV[αMeS]S[αMeF]LEGEK([PEG2′-PEG2′-γGlu-Stearoyl])A[αMeK]E[αMeF]IA[αMeF]VV[αMeK]GG-NH2 [SEQ ID NO 111],25 nM,25 nM

# Molecular target: T1, glucose-dependent insulinotropic peptide (gastric inhibitory polypeptide) receptor (GIPR) (human, UniProt P48546 22-466)
# T1 sequence (looked up): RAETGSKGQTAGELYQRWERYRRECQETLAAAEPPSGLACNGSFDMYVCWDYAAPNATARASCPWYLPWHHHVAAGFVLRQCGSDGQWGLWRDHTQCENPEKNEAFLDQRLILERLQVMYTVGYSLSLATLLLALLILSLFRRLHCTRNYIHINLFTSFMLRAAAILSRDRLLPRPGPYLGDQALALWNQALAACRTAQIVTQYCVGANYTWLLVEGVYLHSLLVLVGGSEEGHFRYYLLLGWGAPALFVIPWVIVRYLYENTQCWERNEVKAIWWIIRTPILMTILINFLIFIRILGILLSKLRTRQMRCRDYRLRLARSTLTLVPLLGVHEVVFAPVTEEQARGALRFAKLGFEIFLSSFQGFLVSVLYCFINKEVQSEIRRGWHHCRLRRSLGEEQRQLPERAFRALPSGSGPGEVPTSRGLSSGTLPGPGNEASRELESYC
# Test: cell-based or functional assay
Binder,cAMP Primary assay EC50 GIP-R,cAMP Primary assay EC50 GIP-R (2nd)
H[Aib]EGS[αMeF]TSDV[αMeS]S[αMeF]LEGEAAK([PEG2′-PEG2′-γGlu-Palmitoyl])E[αMeF]IA[αMeF]VV[αMeK]GG-NH2 [SEQ ID NO 109],26 nM,25.6 nM
H[Aib]K([PEG2′-PEG2′-γGlu-Stearoyl])GS[αMeF]TSDV[αMeS]S[αMeF]LEGEAA[αMeK]E[αMeF]IA[αMeF]VV[αMeK]GG-NH2 [SEQ ID NO 126],25 nM,25.4 nM
HK([PEG2′-PEG2′-γGlu-Stearoyl])EGS[αMeF]TSDV[αMeS]S[αMeF]LEGEAA[αMeK]E[αMeF]IA[αMeF]VV[αMeK]GG-NH2 [SEQ ID NO 127],25 nM,25.1 nM
H[Aib]EGS[αMeF]TSDV[αMeS]S[αMeF]LEGEAK([PEG2′-PEG2′-γGlu-Stearoyl])[αMeK]E[αMeF]IA[αMeF]VV[αMeK]GG-NH2 [SEQ ID NO 110],25 nM,25 nM
H[Aib]EGS[αMeF]TSDV[αMeS]K([PEG2′-PEG2′-γGlu-Stearoyl])[αMeF]LEGEAA[αMeK]E[αMeF]IA[αMeF]VV[αMeK]GG-NH2 [SEQ ID NO 117],25 nM,25.1 nM
H[Aib]EGS[αMeF]TSDV[αMeS]S[αMeF]LEGK([PEG2′-PEG2′-γGlu-Stearoyl])AA[αMeK]E[αMeF]IA[αMeF]VV[αMeK]GG-NH2 [SEQ ID NO 112],25 nM,25.4 nM
H[Aib]EGS[αMeF]TSK([PEG2′-PEG2′-γGlu-Stearoyl])V[αMeS]S[αMeF]LEGEAA[αMeK]E[αMeF]IA[αMeF]VV[αMeK]GG-NH2 [SEQ ID NO 120],25 nM,25.3 nM
H[Aib]EGS[αMeF]TSDV[αMeS]SK([PEG2′-PEG2′-γGlu-Stearoyl])LEGEAA[αMeK]E[αMeF]IA[αMeF]VV[αMeK]GG-NH2 [SEQ ID NO 116],26 nM,25.6 nM
H[Aib]EGK([PEG2′-PEG2′-γGlu-Stearoyl])[αMeF]TSDV[αMeS]S[αMeF]LEGEAA[αMeK]E[αMeF]IA[αMeF]VV[αMeK]GG-NH2 [SEQ ID NO 124],25 nM,25.1 nM
H[Aib]EGS[αMeF]TSDV[αMeS]S[αMeF]LEGEK([PEG2′-PEG2′-γGlu-Stearoyl])A[αMeK]E[αMeF]IA[αMeF]VV[αMeK]GG-NH2 [SEQ ID NO 111],25 nM,25 nM
